Reference: patent publication US20120065134A1 (PHYLOGICA, published 2012)
Where no end group is shown, it is not given here. PEG = not defined here

B1: CD40 ligand (CD40L or CD154) (ligand)
chain: MQKGDQNPQIAAHVISEASSKTTSVLQWAEKGYYTMSNNLVTLENGKQLTVKRQGLYYIYAQVTFCSNREASSQAPFIASLCLKSPGRFERILLRAANTHSSAKPCGQQSIHLGGVFELQPGASVFVNVTDPSQVSHGTGFTSFGLLKL
modifications: biotinylated ('biotinylated phospho-CD40L') in the proximity assay as described in paragraph 342
notes: Species never stated; also called soluble CD40L; CD40L target protein
B2: Cys_M1_6S (peptide)
peptide: CHPFSIKNVFSIWNFFSVY
modifications: a cysteine-containing linker (8-amino-3,6-dioxaoctanoyl type, FIG. 1b) may stand between Cys and the peptide; not stated for this molecule
notes: also called cysteine-containing derivative of M1-6S
B3: CD40L M8_747 (peptide)
peptide: LAEHAVWSLKCFPDWEWYNINIFGTDDPNHFWVECDGHGKILFPGYPEGYYENHFLHSFELED

Legend:
[1] = target: B1; assay: cell-based or functional assay
CD40 on primary B-cells = assay: cell-based or functional assay
CD40L M8_748 = target: T1, CD40L M8_748; assay: BLI, Octet Red (ForteBio), label-free
T1 construct: Base peptide, natural open reading frame

[2] = target: B1; assay: Alphascreen proximity assay; peptide titrated, axis Phylomer (M); blocked ligand is CD40 (CD40-Fc on acceptor beads)
[3] = target: B1; assay: Alphascreen proximity assay, 0.75nM CD40L; peptide titrated; blocked ligand is CD40 (CD40-Fc on acceptor beads)
[4] = target: B1; assay: cell-based or functional assay; remark: listed apart in the source
[5] = target: B1; assay: Alphascreen proximity assay, inhibition of CD40L-CD40 interaction
[6] = target: B1; assay: BLI, Octet Red (ForteBio), label-free
[7] = target: B1; assay: Alphascreen proximity assay, inhibition of CD40L/CD40-Fc interaction, unmodified peptide

Q: {PEG}-HPFSIKNVFSIWNFFSVY (reading uncertain; also: PEG size and spacer not given here) [PEGylated CD40L M1_6s] was tested. Which “EC50, inhibition of CD40L-induced CD86 expression on primary B-cells (FACS), PEGylated peptide” value (“EC50, inhibition … PEGylated peptide” for short) [1] did it give?
A: 1.5 nM

Q: For LCEMIAIYVFLWKKVFL [CD40L M7_217], which “EC50, inhibition of CD40L-induced CD86 expression on primary B-cells (FACS), unmodified peptide” value [1] is on record?
A: 2500 nM

Q: For B1, which “EC50, induction of CD86 expression on primary B-cells by CD40L” value (CD40 on primary B-cells) is on record?
A: ~9 nM

Q: What about the Kd (CD40L M8_748) of the same binder?
A: 5 nM

Q: B2 was tested. Which “IC50 (read off the curve)” value [2] did it give?
A: ~300 nM

Q: And the “IC50 (read off the curve)” value [3]?
A: ~300 nM

Q: And the “EC50, inhibition of CD40L-induced CD86 expression on primary B-cells” value [4]?
A: 306 nM

Q: And the EC50 [5]?
A: 0.265 nM

Q: {PEG}-LPFVPYRSHVLKYGWFFPVQWSIFAVLPFQYLHRSR (reading uncertain; also: PEG size and spacer not given here) [PEGylated CD40L M1_18s] was tested. Which “EC50, inhibition … PEGylated peptide” value [1] did it give?
A: 90 nM

Q: With {PEG}-HSFVLFGVNVPFNIIDFQMRVKS (reading uncertain; also: PEG size and spacer not given here) [PEGylated CD40L M1_42s] as the binder, how does the “EC50, inhibition … PEGylated peptide” value [1] read?
A: 5000 nM

Q: Which results are given for B3?
A: Kd [6]: 8 nM; EC50 [7]: 197 nM

Q: For {PEG}-PPRYNLFFLFRFYSSFRRDYLYF (reading uncertain; also: PEG size and spacer not given here) [PEGylated CD40L M1_9s], which “EC50, inhibition … PEGylated peptide” value [1] is on record?
A: 180 nM

Q: For {PEG}-DAAGREFFQIAGLFSFRHHWWQA (reading uncertain; also: PEG size and spacer not given here) [PEGylated CD40L M1_30s], which “EC50, inhibition … PEGylated peptide” value [1] is on record?
A: > 2000 nM

Q: For {PEG}-PRWVRNRFYSLFVPSGVQRGGIHLWFSNWVR (reading uncertain; also: PEG size and spacer not given here) [PEGylated CD40L M1_50s], which “EC50, inhibition … PEGylated peptide” value [1] is on record?
A: 30 nM
